# Legend:
# [1] = biological target: La ribonucleoprotein domain family, member 1 (human) (UniProt Q6PKG0); assay: protein microarray; settings: 3'-biotin; Microarray: 20 mM Tris pH 7.5, 5 mM MgCl2, 100 mM KCl, 0.1% Tween-20, A/T-rich ON blocker mix; EMSA: 20 mM Tris-HCl pH 8, 100 mM KCl, 200 nM ON, 0-200 nM BRD3 …
# [2] = biological target: T1, small trans-membrane and glycosylated protein (human) (UniProt O95332); assay: protein microarray; settings: 3'-biotin; Microarray: 20 mM Tris pH 7.5, 5 mM MgCl2, 100 mM KCl, 0.1% Tween-20, A/T-rich ON blocker mix; EMSA: 20 mM Tris-HCl pH 8, 100 mM KCl, 200 nM ON, 0-200 nM BRD3 …
# T1 sequence: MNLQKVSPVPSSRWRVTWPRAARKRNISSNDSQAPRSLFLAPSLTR
Sequence,binding signal [1],binding signal [2]
GGGAGGCTGAGGCAGG [G4-1 biotinylated (PQS2)],4.49 Z-score,3.31 Z-score
GGGGACAGGGGTATGGGGAGGGG [G4-3 biotinylated (CtG)],4.71 Z-score,4.59 Z-score
GGTGACAGGGGTATGGGGAGGGG [G4-2 biotinylated (Ct1)],5.37 Z-score,5.81 Z-score
